From publication PMC11385703 (Structure(London, England:1993), 2024)

How the values were obtained:
Conditions in all cases: both partners purified
biotinylated myotoxin II = biotinylated myotoxin II (Bothrops asper, UniProt P24605, biotin (EZ-Link NHS-PEG4-Biotin, 1:1.25 toxin:reagent molar ratio)); test: BLI
myotoxin II = target: T1, myotoxin II (Bothrops asper, UniProt P24605); test: […] (1:20) in PBS pH 7.4 and pH 6, 1 h at room temperature
T1 construct: source: purified from the venom of B. asper (CM-Sephadex C25, RP-HPLC)

[1] = target: T2, α-cobratoxin, biotinylated (Naja kaouthia, UniProt P01391, biotin (EZ-Link NHS-PEG4-Biotin, 1:1.25 toxin:biotinylation reagent molar ratio)); test: BLI; […]) biosensors; […]; dissociation for 600 s in HEPES-MES pH 4.0; 25°C; 1:1 binding model, […]
[2] = target: T2, α-cobratoxin, biotinylated; test: BLI; […]) biosensors; […]; dissociation for 600 s in HEPES-MES pH 6.5; 25°C; 1:1 binding model, […]
[3] = target: T2, α-cobratoxin, biotinylated; test: BLI; […]) biosensors; […]; dissociation for 600 s in HEPES-MES pH 3.5; 25°C; 1:1 binding model, […]
[4] = target: T2, α-cobratoxin, biotinylated; test: BLI; […]) biosensors; […]; dissociation for 600 s in HEPES-MES pH 6.0; 25°C; 1:1 binding model, […]
[5] = target: T2, α-cobratoxin, biotinylated; test: BLI; […]) biosensors; […]; association in HEPES-MES pH 7.4 for 300 s, dissociation in HEPES-MES pH 7.4 for 600 s; 1:1 binding model, […]
[6] = target: T2, α-cobratoxin, biotinylated; test: BLI; […]) biosensors; […]; dissociation for 600 s in HEPES-MES pH 5.5; 25°C; 1:1 binding model, […]
[7] = target: T2, α-cobratoxin, biotinylated; test: BLI; […]) biosensors; […]; dissociation for 600 s in HEPES-MES pH 5.0; 25°C; 1:1 binding model, […]
[8] = target: T2, α-cobratoxin, biotinylated; test: BLI; […]) biosensors; […]; dissociation for 600 s in HEPES-MES pH 7.4; 25°C; 1:1 binding model, […]
[9] = target: T2, α-cobratoxin, biotinylated; test: BLI; […]) biosensors; […]; dissociation for 600 s in HEPES-MES pH 4.5; 25°C; 1:1 binding model, […]
[10] = target: T2, α-cobratoxin, biotinylated; test: BLI; […]) biosensors; […]; association in HEPES-MES pH 7.4 for 300 s, dissociation in HEPES-MES pH 5.5 for 600 s; 1:1 binding model, […]
α-cobratoxin = target: T3, α-cobratoxin (Naja kaouthia, UniProt P01391); test: SPR; […] (Biacore 8K, 25°C); […]; dissociation 300 s in running buffer of pH 7.4 or 5.5
T3 construct: source: bought: Latoxan

[11] = target: T4, biotinylated α-cobratoxin (Naja kaouthia, UniProt P01391); test: BLI
T4 construct: source: bought: Latoxan, then biotinylated
T4 sequence (P01391 whole entry): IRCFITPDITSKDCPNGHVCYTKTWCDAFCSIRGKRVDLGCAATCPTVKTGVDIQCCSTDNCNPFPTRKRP

T2 sequence (P01391 whole entry): as above
biotinylated myotoxin II, sequence (P24605 17-137): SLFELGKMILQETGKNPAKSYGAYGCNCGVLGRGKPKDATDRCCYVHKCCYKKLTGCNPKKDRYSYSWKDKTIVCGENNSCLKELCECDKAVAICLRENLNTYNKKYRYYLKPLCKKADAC
T1 sequence (P24605 17-137): as above

B1: IgG: TPL0039_05_E02-YTE (antibody, V domains shown)
VH: QVQLLESGGGLVQPGRSLRLSCAASGFTFSSYGLHWVRQAPGKGLEWVAVISYDGSNKYYADSVKGRFTISRDNSKNTLYLQMNSLRAEDTAVYYCASTLQQLDAFDIWGQGTLVTVSS
VL: NFMLTQPHSVSESPGKTVTISCTRSSGSIASNYVQWYQQRPGTSPTIMIYEDNQRPSGVPDRFSGAIDSSSNSASLTISGLKTEDEADYYCQSYDSSSVVFGGGTKVTVL
notes: copies: 2 + 2
- Kd (biotinylated myotoxin II): < 0.001 nM
- koff (biotinylated myotoxin II): < 1e-07 s⁻¹

B2: IgG: TPL0039_05_B12-YTE (antibody, V domains shown)
VH: EVQLVESGGGVVQPGRSLRLSCAASGFTFSSYGMHWVRQAPGKGLEWVAVISYDGSNKYYADSVKGRFTISRDNSKNTLYLQMNSLRAEDTAVYYCAGWTEGDAFDIWGQGTLVTVSS
VL: NFMLTQPHSVSESPGKTVTISCTRSSGSIASNYVQWYQQRPGSAPSTVIYEDNRRPSGVPDRFSGSIDSASNSASLTISGLKTEDEADYYCQSYDSSSVVFGGGTKITVL
notes: copies: 2 + 2
- Kd (biotinylated myotoxin II): < 0.001 nM

B3: IgG: TPL0039_05_B04-YTE (antibody, V domains shown)
VH: EVQLLESGGGVVQPGRSLRLSCAASGFTFSSYGMHWVRQAPGKGLEWVAVISYDGSNKYYADSVKGRFTISRDNSKNTLYLQMNSLRAEDTAVYYCARVGENEAFDIWGQGTMVTVSS
VL: NFMLTQPHSVSESPGKTVTISCTRSSGSIARNYVQWYQQRPGSAPTTVIYEDNQRPSGVPDRFSGSIDSSSNSASLTISGLKTEDEADYYCQSYDSSTVVFGGGTKLTVL
notes: also called IgG1 B04-YTE; source: CHO cells, transiently expressed, purified; copies: 2 + 2
- stoichiometry N (myotoxin II): 2 antigen per IgG1

B4: TPL0197_01_C08 Fab (Fab, V domains shown)
VH: EVQLVQSGAEVKKPGASVKVSCKASGYTFTSYGISWVRQAPGQGLEWMGWISAYNGNTNYAQKLQGRVTMTTDTSTSTAYMELRSLRSDDTAVYYCAREEYCSSTSCYVGNYYGMDVWGQGTLVTVSS
VL: DIQMTQSPSSLSASVGDRVTITCQASQDISNYLNWYQQKPGKAPKLLIYAASSLESGVPSRFSGSGSGTEFTLTITNLQVDDFATYYCQRYDSNFAFGQGTKVEIK
- koff [1]: 0.28 s⁻¹
- koff [2]: 0.00077 s⁻¹
- koff [3]: 1.2 s⁻¹
- koff [4]: 0.0015 s⁻¹
- Kd [5]: 64 nM
- koff [5]: 0.00085 s⁻¹
- kon [5]: 11000 M⁻¹ s⁻¹
- koff [6]: 0.0041 s⁻¹
- koff [7]: 0.0073 s⁻¹
- koff [8]: 0.00069 s⁻¹
- koff [9]: 0.054 s⁻¹
- koff [10]: 0.0058 s⁻¹
- kon [10]: 3800 M⁻¹ s⁻¹

B5: IgG: TPL0197_01_C08-YTE (antibody, V domains shown)
VH: EVQLVQSGAEVKKPGASVKVSCKASGYTFTSYGISWVRQAPGQGLEWMGWISAYNGNTNYAQKLQGRVTMTTDTSTSTAYMELRSLRSDDTAVYYCAREEYCSSTSCYVGNYYGMDVWGQGTLVTVSS
VL: DIQMTQSPSSLSASVGDRVTITCQASQDISNYLNWYQQKPGKAPKLLIYAASSLESGVPSRFSGSGSGTEFTLTITNLQVDDFATYYCQRYDSNFAFGQGTKVEIK
notes: also called IgG1 C08; source: CHO cells, transiently expressed, purified; copies: 2 + 2
- binding result (α-cobratoxin): binds

B6: 2554_01_D11 Fab (Fab, V domains shown)
VH: QVQLVQSGAEVKKPGSSVKVSCKASGGTFSSYAISWVRQAPGQGLEWMGGIIPIFGTANYAQKFQGRVTITADESTSTAYMELRSLRSDDTAVYYCARDNLGYCSGGSCYSDYYYYYMDVWGQGTLVTVSS
VL: NFMLTQPRSVSESPGKTVTISCTRSSGSIGSDYVHWYQQRPGSSPTTVIYEDNQRPSGVPDRFSGSIDSSSNSASLTISGLKTEDEADYYCQSYDRSNHEVVFGGGTKLTVL
- koff [1]: 0.001 s⁻¹
- koff [2]: 0.00027 s⁻¹
- koff [3]: 0.0036 s⁻¹
- koff [4]: 0.0003 s⁻¹
- koff [6]: 0.00039 s⁻¹
- koff [7]: 0.00043 s⁻¹
- koff [8]: 0.00026 s⁻¹
- koff [9]: 0.00065 s⁻¹
- Kd [10]: 8.7 nM
- koff [10]: 0.0004 s⁻¹
- kon [10]: 46000 M⁻¹ s⁻¹

B7: Fab: 2554_01_D11 (Fab, V domains shown)
VH: QVQLVQSGAEVKKPGSSVKVSCKASGGTFSSYAISWVRQAPGQGLEWMGGIIPIFGTANYAQKFQGRVTITADESTSTAYMELRSLRSDDTAVYYCARDNLGYCSGGSCYSDYYYYYMDVWGQGTLVTVSS
VL: NFMLTQPRSVSESPGKTVTISCTRSSGSIGSDYVHWYQQRPGSSPTTVIYEDNQRPSGVPDRFSGSIDSSSNSASLTISGLKTEDEADYYCQSYDRSNHEVVFGGGTKLTVL
notes: also called Fab D11; source: purified
- binding result [11]: binds

B8: Fab: 2555_01_A01 (Fab, V domains shown)
VH: QVQLVQSGAEVKKPGSSVKVSCKASGGTFSSYAISWVRQAPGQGLEWMGGIIPIFGTANYAQKFQGRVTITADESTSTAYMELRSLRSDDTAVYYCARDNLGYCSGGSCYSDYYYYYMDVWGQGTLVTVSS
VL: SYELTQPPSVSVAPGRTATITCEGDNIGQQIVHWYQQKPGQAPVAVISSDSDRPSGIPERFSGSNSGNTATLTISRVEAGDEADYYCQVWDSGSDHVVFGGGTKVTVL
notes: also called Fab A01; source: purified
- binding result [11]: binds

B9: IgG: 2555_01_A01-YTE (antibody, V domains shown)
VH: QVQLVQSGAEVKKPGSSVKVSCKASGGTFSSYAISWVRQAPGQGLEWMGGIIPIFGTANYAQKFQGRVTITADESTSTAYMELRSLRSDDTAVYYCARDNLGYCSGGSCYSDYYYYYMDVWGQGTLVTVSS
VL: SYELTQPPSVSVAPGRTATITCEGDNIGQQIVHWYQQKPGQAPVAVISSDSDRPSGIPERFSGSNSGNTATLTISRVEAGDEADYYCQVWDSGSDHVVFGGGTKVTVL
notes: also called IgG1 A01; source: CHO cells, transiently expressed, purified; copies: 2 + 2
- binding result (α-cobratoxin): binds
